# According to the supplement of paper PMC10266784:
# B1: library; numbered along this chain (parent)
# chain: MAAAAAAAAEQQSSNGPVKKSMREKAVERRSVNKEHNSNFKAGYIPIDEDRLHKTGLRGRKGNLAICVIILLFILAVINLIITLVIWAVIRIGPNGCDSMEFHESGLLRFKQVSDMGVIHPLYKSTVGGRRNENLVITGNNQPIVFQQGTTKLSVENNKTSITSDIGMQFFDPRTQNILFSTDYETHEFHLPSGVKSLNVQKASTERITSNATSDLNIKVDGRAIVRGNEGVFIMGKTIEFHMGGNMELKAENSIILNGSVMVSTTRLPSSSSGDQLGSGDWVRYKLCMCADGTLFKVQVTSQNMGCQISDNPCGNTH
# Variants of: B1
# Experiment: SGCB cell-surface expression functional score (HA stain, bin4 vs bin1, normalised to synonymous) (log10 ratio); higher = more cell-surface SGCB (functional)
# In short: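 Human beta-sarcoglycan, tagged with HA and fused to YFP, was built into codon-saturation libraries and delivered by lentivirus at MOI <0.1 into HEK293 cells that stably express alpha-, gamma- and delta-sarcoglycan. After 72 hours, YFP-positive cells were sorted and grown for 5–7 days, then stained on ice with Alexa Fluor 647 anti-HA, fixed, sorted into four 5% intensity bins and amplicon-sequenced. Each variant's functional score is the log ratio of its frequency in the highest bin to that in the lowest bin, taken as the median across codons and transductions. Transductions were done in duplicate, and synonymous variants were scaled per section to mean 0, SD 0.5.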
row,Variant,SGCB cell-surface expression functional score (log10)
1,V18R,0.23
2,R227N,-0.13
3,S264R,0.03
4,S21I,0.3
5,A6S,0.25
6,I78N,0.19
7,G222W,0.49
8,R30E,0.42
9,D292T,-0.67
10,L249I,0.85
11,K152M,-0.19
12,Q308F,-0.31
13,G43C,-0.02
14,S302N,-1.18
15,S154A,0.26
16,L249G,0.21
17,I255G,-1.03
18,S279D,0.24
19,E230M,0.53
20,A42R,-0.08
21,F40H,-0.44
22,A5L,0.24
23,R30I,-0.19
24,A7Q,0.41

row,Variant,SGCB cell-surface expression functional score (log10)
1,I66T,0.03
2,I92W,-2.43
3,S254R,0.12
4,L107T,-0.34
5,V261E,0.05
6,T83D,-0.02
7,G16K,0.11
8,P192Q,-2.22
9,F73R,-0.59
10,S270F,1.1
11,D50I,0.07
12,S114M,-0.25
13,T213V,-1.02
14,F189H,-1.03
15,P17I,-0.28
16,A42K,0.18
17,T175E,-0.42
18,N33P,0.04
19,M262N,0
20,A6I,0.36
21,Q169T,-0.04
22,N157G,0.52
23,F171C,-1.66
24,K196S,-0.1

row,Variant,SGCB cell-surface expression functional score (log10)
1,V263M,-1.03
2,T301A,-0.27
3,Q11D,0.04
4,L249C,0.2
5,L52W,-0.3
6,V136M,-0.57
7,K61N,-0.39
8,N33G,0.33
9,T83R,-0.49
10,V27D,-0.2
11,G128W,0.3
12,H120F,0.08
13,E240C,0.37
14,G280Y,-0.23
15,E156C,0.01
16,K202T,0.12
17,N158H,-0.2
18,V68W,0.12
19,L198D,-2.43
20,R174P,-0.77
21,I144K,-1.07
22,W282L,0.08
23,I255R,-0.91
24,T186G,-0.44

row,Variant,SGCB cell-surface expression functional score (log10)
1,F189Y,-0.98
2,R284A,0.33
3,T238G,0.71
4,G244I,-0.24
5,S114L,-1.15
6,E49C,0.3
7,G129W,-1.42
8,S273M,-1.46
9,I74F,-0.25
10,I162R,-1.34
11,T266E,1.22
12,V220N,0.09
13,D172Q,-0.19
14,D281P,-0.06
15,V220T,0.63
16,T186N,-0.55
17,V68M,-0.35
18,I74D,-0.26
19,F73D,0.36
20,A8E,0.48
21,G228W,-1.51
22,S21E,-0.28
23,I45C,-0.09
24,M235T,0.37

row,Variant,SGCB cell-surface expression functional score (log10)
1,F180H,-2.25
2,I144Y,-1.1
3,S181I,-1.25
4,L52I,-0.3
5,L268C,-0.57
6,L295R,-0.52
7,V127N,-0.94
8,Q176A,0.1
9,P121F,0.33
10,D48S,0.3
11,M247S,0.26
12,V127R,-0.96
13,L287N,-2.02
14,C314G,-0.29
15,M305A,-0.71
16,M168T,-1.24
17,S272A,0.37
18,G128Y,0.6
19,L64F,0.43
20,K25I,0.13
21,Q12T,-0.35
22,S181E,-1.4
23,M289S,-0.79
24,M235E,0

row,Variant,SGCB cell-surface expression functional score (log10)
1,I86G,-0.59
2,S273C,-0.58
3,I208F,-0.61
4,L75C,-0.06
5,L153D,-1.44
6,T150Y,0
7,N15H,-0.07
8,S310R,-0.02
9,E24I,0.08
10,W87M,0.4
11,T175S,-0.04
12,E252I,1.01
13,M1T,-1.08
14,G228K,-1.33
15,E28I,0.42
16,K196L,-0.57
17,Q303V,0.37
18,G274C,-0.61
19,Q308N,-0.38
20,V155K,-1.53
21,H242C,1
22,R267I,-0.11
23,L72T,0.45
24,N132C,0.33

row,Variant,SGCB cell-surface expression functional score (log10)
1,I78S,-0.22
2,K219N,-0.17
3,T317A,-0.21
4,I234E,-1.49
5,N316K,0.03
6,L107N,-0.13
7,I45V,0.48
8,L153N,-1.69
9,H103T,0.65
10,L257I,0.12
11,N258A,0.1
12,G167E,-1.93
13,S260T,0.41
14,M247I,0.34
15,G274V,-0.14
16,I239E,0
17,N132S,-0.31
18,V263W,0.52
19,E230I,0.14
20,S99I,-0.54
21,A5M,0.25
22,I225E,1.24
23,A8G,0.3
24,S214P,-1.11

row,Variant,SGCB cell-surface expression functional score (log10)
1,G315K,-0.14
2,L64V,0.25
3,G231Y,0.68
4,I81S,-0.14
5,T151R,-1.06
6,D50N,0.29
7,H242F,0.89
8,N37I,0.02
9,S181R,-0.87
10,K124Y,0.18
11,E252P,0.32
12,H103C,-0.1
13,Q176E,0.27
14,I119H,-1.49
15,G106Y,-1.15
16,K159I,0
17,G259E,-1.29
18,N134V,-0.29
19,Q142E,-0.04
20,N33D,0.4
21,T186Q,0.7
22,V300L,-1.14
23,E156Q,0.19
24,T150H,0

row,Variant,SGCB cell-surface expression functional score (log10)
1,Y285T,-1.86
2,I81F,-0.08
3,L287F,-0.14
4,R223S,0.18
5,A212Q,0.72
6,L52T,0.42
7,E101G,-0.26
8,F110N,-0.99
9,L287D,-0.88
10,S260W,0.61
11,E185Y,0.02
12,G259S,0.28
13,V195R,-1.37
14,R174K,0.08
15,Q303Y,-0.3
16,G228D,-1.5
17,G293S,-0.48
18,N63P,0.32
19,K111D,-0.84
20,M243W,-0.253
21,V263H,0.31
22,V298W,0.29
23,C97A,-0.14
24,A224F,0.35

row,Variant,SGCB cell-surface expression functional score (log10)
1,V68N,0.03
2,T294R,-0.13
3,N312A,-0.03
4,G43W,0.34
5,N132Y,0.44
6,G129Y,-0.91
7,D215M,-1
8,A251S,0.32
9,F180K,-1.78
10,K54E,0.02
11,N95M,0.68
12,I309V,-0.63
13,I178S,-1.13
14,G194W,0.23
15,Y123Q,0.06
16,L122V,-0.14
17,K20I,0.09
18,N177A,0.49
19,S181T,-0.51
20,V283H,-0.24
21,V27P,-0.17
22,D50K,0.54
23,V18D,0.09
24,M100A,-1.33

row,Variant,SGCB cell-surface expression functional score (log10)
1,L122S,0.31
2,T205V,-0.05
3,G117E,-0.94
4,N217V,0.65
5,I119P,-0.94
6,D172T,0.25
7,V27A,0.22
8,M168N,-2.1
9,H120M,-0.63
10,G274S,0.17
11,H242A,0.4
12,F189I,-1.15
13,Q169M,-1.88
14,K286H,-1.12
15,Q201T,-0.09
16,N39T,-0.1
17,H103K,-0.02
18,Q169N,-1.92
19,V118M,-0.05
20,L295N,-1.17
21,S270A,0.44
22,L216S,-1.57
23,L108A,-0.07
24,N253M,-0.117

row,Variant,SGCB cell-surface expression functional score (log10)
1,F241V,-0.37
2,L257S,-1.19
3,L72N,-0.44
4,L249E,-0.69
5,M247P,-1.08
6,D281M,0.67
7,R207E,-2.46
8,I218T,-0.49
9,S260P,0.71
10,E185Q,-0.17
11,N316L,-0.05
12,P17M,-0.04
13,S99Y,0.12
14,C290K,-0.15
15,H190R,0.34
16,L257N,-0.61
17,G62V,-0.21
18,L72P,-0.11
19,F189D,-1.52
20,I256T,0.37
21,I119A,-0.49
22,V261Q,-1.12
23,L135C,-0.83
24,P173R,-0.47

row,Variant,SGCB cell-surface expression functional score (log10)
1,G315E,0.04
2,V283L,0.37
3,I239R,-1.04
4,D281C,-1.63
5,H187R,-0.76
6,N39H,-0.1
7,A251R,-1.16
8,T163F,-0.27
9,I69N,0.62
10,L71S,0.06
11,K286D,-1.17
12,N158G,-0.06
13,T205D,-1.46
14,G280W,-0.37
15,Q147C,0.5
16,D281V,-0.16
17,S114N,-0.49
18,G280C,-0.75
19,V27H,0.05
20,N134E,-0.18
21,L198S,-1.39
22,L57W,0.44
23,Q11E,0.17
24,K286Q,-0.61

row,Variant,SGCB cell-surface expression functional score (log10)
1,V85A,0.3
2,F296T,-0.42
3,M235D,-0.066
4,F241A,0.14
5,N229A,0.8
6,M247T,-0.51
7,K202L,0.04
8,M22Y,-0.14
9,T186A,0.54
10,Q308V,-0.04
11,N15D,-0.15
12,I66V,0.2
13,Q12R,0.29
14,M1G,0.1
15,G129A,-0.41
16,K237W,0.453
17,Q142C,-0.01
18,F170E,-2.21
19,V300I,-0.28
20,M289T,-0.81
21,L108I,0.03
22,E206F,0.19
